Measured values published in patent US20150337046A1 (Kyowa Kirin, published 2015).
One block for each binder: values may come before it.

Tests used:
[1] = biological target: T1, soluble FLAG-tagged recombinant hLIGHT (native, untreated) (human, UniProt O43557 66-240); assay: dot blot: serial dilutions of native soluble hLIGHT on PVDF, probed with 5 µg/ml antibody, chemiluminescence
T1 construct: N-terminal FLAG tag followed by hLIGHT extracellular region Gly66 to Val240; also called soluble hLIGHT; FLAG-hLIGHT
T1 chain: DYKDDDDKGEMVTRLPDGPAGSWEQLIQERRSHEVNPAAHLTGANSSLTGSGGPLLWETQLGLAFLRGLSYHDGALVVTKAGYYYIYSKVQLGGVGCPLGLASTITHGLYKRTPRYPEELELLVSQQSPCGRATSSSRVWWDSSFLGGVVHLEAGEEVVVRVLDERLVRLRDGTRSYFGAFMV
Procedure: Each blot was probed with 5 μg/ml of each primary antibody. […] The blots were washed 3× in 1×TBST followed by super SA-HRP (Amersham Biosciences, Piscataway, N.J.). Chemiluminescence was used for detection using the ECL detection kit (Amersham Biosciences, Piscataway, N.J.) and signal was visualized by exposure to X-OMAT AR imaging film (Kodak, Rochester, N.Y.). […] An anti-M2 (irrelevant antigen) antibody was used as a negative control.
Five micrograms of soluble human LIGHT was either boiled in 2×SDS sample buffer (denatured) or untreated (native), and then both were serially diluted in 6× increments. 5 μl of each hLIGHT dilution was spotted simultaneously onto hydrated 0.2 μm PVDF membranes (Invitrogen, Carlsbad, Calif.) using an 8 multi-channel pipette. […] Each blot was probed with 5 μg/ml of each primary antibody (see below). […] The blots were washed 3×in 1×TBST followed by super SA-HRP (Amersham Biosciences, Piscataway, N.J.). Chemiluminescence was used for detection using the ECL detection kit (Amersham Biosciences, Piscataway, N.J.) and signal was visualized by exposure to X-OMAT AR imaging film (Kodak, Rochester, N.Y.)

[2] = biological target: T2, hLIGHT SNP variant 214E-32S, cell surface-expressed on EL4 cells (human, UniProt O43557 1-240); assay: flow cytometry dose titration on EL4 cells expressing the SNP variant
Procedure: (§1) For FIG. 25A-25D, the geometric mean fluorescence intensity (MFI) was determined and non-linear regression analysis applied.

[3] = biological target: T3, hLIGHT SNP variant 214E-32L, cell surface-expressed on EL4 cells (human, UniProt O43557 1-240); assay: as above
T3 construct: also called cytoplasmic SNP
T3 chain: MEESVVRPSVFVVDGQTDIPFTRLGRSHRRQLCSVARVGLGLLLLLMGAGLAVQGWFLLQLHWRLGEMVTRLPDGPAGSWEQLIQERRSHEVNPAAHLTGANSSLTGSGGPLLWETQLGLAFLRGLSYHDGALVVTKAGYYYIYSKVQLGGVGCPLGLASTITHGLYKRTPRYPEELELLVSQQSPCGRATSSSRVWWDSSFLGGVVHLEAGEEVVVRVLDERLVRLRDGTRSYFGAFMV
Procedure: as §1

[4] = biological target: T4, human LIGHT (hLIGHT), cell surface-expressed, full length (human, UniProt O43557 1-240); assay: flow cytometry on HEK 293-hLIGHT cells
T4 construct: also called native hLIGHT on the cell surface; EL4-hLIGHT

[5] = biological target: T5, hLIGHT SNP variant 214K-32S, cell surface-expressed on EL4 cells (human, UniProt O43557 1-240); assay: flow cytometry dose titration on EL4 cells expressing 214K-32S
Procedure: as §1

[6] = biological target: T2, hLIGHT SNP variant 214E-32S, cell …; assay: flow cytometry at 10 µg/ml antibody on EL4 SNP cell lines
Source text: (§2) Binding was detected with goat anti-human IgG-APC secondary antibody. Isotype control human IgG was used as a negative control.

[7] = biological target: T4, human LIGHT (hLIGHT), cell …; assay: flow cytometry on hLIGHT-transfected cells
[8] = biological target: T5, hLIGHT SNP variant 214K-32S, cell …; assay: flow cytometry at one antibody concentration on EL4 SNP 214K cell line
Source text: as §2

B1: E1 antibody (produced by hybridoma 124 E1, ATCC Accession No. PTA-7729) (antibody, V domains shown)
VH: EVQLVESGGGLVQPGGSLRLSCAASGFTFSRFNMNWVRQAPGKGLEWVSYISSSSYTIYYADSVKGRFTISRDNAKNSLDLQMNSLRDEDTAVYYCARSIAAAFDYWGQGALVTVSS
VL: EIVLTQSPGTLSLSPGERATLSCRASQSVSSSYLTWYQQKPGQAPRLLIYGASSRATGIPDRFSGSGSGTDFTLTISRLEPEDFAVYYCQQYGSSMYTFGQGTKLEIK
notes: Fully human IgG1 purified from hybridoma culture
lowest limit of detection [1]: 23 ng

B3: F23 antibody (produced by hybridoma 124 F23, ATCC Accession No. PTA-7728) (antibody, V domains shown)
VH: QVQLQQWGAGLLKPSETLSLTCAVYGGSFSGYYWNWIRQPPGKGLEWIGEINQYNPSLKSRVTISVDTSKNQFSLKLSSVTAADTAVYYCAREIATADKGYYGLDVWGQGTTVTVSS
VL: AIQLTQSPSSLSASVGDRVTITCRASQGISSALAWYQQKPGKAPKLLIYDASSLESGVPSRFSGSGSGTDFTLTISSLQPEDFATYYCQQFNSYPLTFGGGTKVEIK
notes: Residue ranges without leader are those stated in claim 28 (CLM-00028)
lowest limit of detection [1]: 23 ng

Now from value to binder:

binding result [2]: binds
binding result [3]: binds
binding result [4]: binds
binding result [5]: no binding
B2: recombinant single kappa chain antibody of E1 heavy chain paired with Elkappa(B) (antibody, V domains shown)
VH: B1 VH
VL: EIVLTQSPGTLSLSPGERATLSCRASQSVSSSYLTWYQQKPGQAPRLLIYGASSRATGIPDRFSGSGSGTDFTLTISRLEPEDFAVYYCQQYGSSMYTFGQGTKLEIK
notes: also called E1kappa(B); 124Elkappa(B)

binding result [6]: binds
lowest limit of detection [1]: 3.9 ng
binding result [7]: binds
binding result [8]: no binding (tested: 10 µg/ml)
B4: E63 antibody (produced by hybridoma 124 E63, ATCC Accession No. PTA-7818) (antibody, V domains shown)
VH: QVQLQESGPGLVKPSETLSLTCIVSGGSVSSGGYYWSWIRQPPGKGLEWIGYIYYSGSTNYNPSLKSRVTISVDTSKNQFSLKLSSVTAADTAVYYCARWITMFRGVGFDPWGQGTLVTVSS
VL: EIVLTQSPDFQSVTPKEKVTITCRASQSIGSSLHWYQQKPDQSPKLLIKYASQSFSGVPSRFSGSGSGTDFTLTINSLEAEDAAAYYCHQSSSLPLTFGGGTKVEIK
notes: a recombinant IgG1 version (E63G1) was also made
